# Laboratory results published in patent US20110076730A1 (priority 2006, published 2011).
# Where two headings read alike, the source gives them in different places.
# How the values were obtained:
# [1] = assay type: biochemical; settings: pH 8.3
# [2] = assay type: biochemical; settings: read-out: D-xylose Km
# [3] = assay type: biochemical; settings: read-out: L-arabinose Km
# [4] = assay type: biochemical; settings: read-out: Cofactor Km
Molecule,"D-fructose, D-galactose, D-mannose, 2-deoxy-D-glucose, D-glucose-6-phosphate and D-ribose as substrates [1]","Oxidation of D-xylose, L-arabinose and D-glucose into corresponding sugar acid [1]",Km [2] [µM],Km [3] [µM],Km [4] [µM]
"Xdh-B. fungorum: D-xylose dehydrogenase (Xdh) from Burkholderia fungorum LB400, protein RBU11704 in the ERGO database (protein, Burkholderia fungorum LB400, D-xylose dehydrogenase (Xdh) from Burkholderia fungorum LB400, protein RBU11704 in the ERGO database) MYLLSYPEQVDYPMSYAIYPSLSGKTVVITGGGSGIGAAMVEAFARQGARVFFLDVAEDDSLALQQSLSDAPHPPLFRRCDLRSVDAIHSAFAGIVEIAGPIEVLVNNAGNDDRHEVDAITPAYWDERMAVNLRHQFFCAQAAAAGMRKIGRGVILNLGSVSWHLALPNLAIYMSAKAGIEGLTRGLARDLGAAGIRVNCIIPGAVRTPRQMQLWQSPESEAKLVASQCLRLRIEPEHVARMALFLASDDASRCSGRDYFVDAGWYGE",not the substrates,could be oxidized,970,43000,260
"Xdh-C. crescentus: D-xylose dehydrogenase (Xdh) from Caulobacter crescentus CB15, protein RC001012 in the ERGO database (protein, Caulobacter crescentus CB15, D-xylose dehydrogenase (Xdh) from Caulobacter crescentus CB15, protein RC001012 in the ERGO database) MSSAIYPSLKGKRVVITGGGSGIGAGLTAGFARQGAEVIFLDIADEDSRALEAELAGSPIPPVYKRCDLMNLEAIKAVFAEIGDVDVLVNNAGNDDRHKLADVTGAYWDERINVNLRHMLFCTQAVAPGMKKRGGGAVINFGSISWHLGLEDLVLYETAKAGIEGMTRALARELGPDDIRVTCVVPGNVKTKRQEKWYTPEGEAQIVAAQCLKGRIVPENVAALVLFLASDDASLCTGHEYWIDAGWR",not the substrates,could be oxidized,99,34000,130
